# Legend:
# Assay in all cases: Octet BLI; biotinylated huDLL3-IgG1 fusion on streptavidin tips; single 50 nM trispecific, conditioned medium
# [1] = target: T1, anti-DLL3 trispecific protein with DLL3 binding domain 51B01
# T1 construct: trispecific, one chain
# Experimental: (§1) Using the conditioned medium with known concentrations of the anti-DLL3 trispecific proteins, the relative binding affinities of the anti-DLL3 trispecific proteins toward human DLL3 protein were measured using a method where biotinylated version of human DLL3 protein were expressed as a human IgG1 fusion protein, and the binding affinity measurement was carried out in an Octet instrument with streptavidin tips.
# [2] = target: T2, anti-DLL3 trispecific protein with DLL3 binding domain 42E07
# T2 construct: trispecific, one chain
# Experimental: as §1
# [3] = target: T3, anti-DLL3 trispecific protein with DLL3 binding domain 42C01
# T3 construct: trispecific, one chain
# T3 sequence (chain, as listed by the source): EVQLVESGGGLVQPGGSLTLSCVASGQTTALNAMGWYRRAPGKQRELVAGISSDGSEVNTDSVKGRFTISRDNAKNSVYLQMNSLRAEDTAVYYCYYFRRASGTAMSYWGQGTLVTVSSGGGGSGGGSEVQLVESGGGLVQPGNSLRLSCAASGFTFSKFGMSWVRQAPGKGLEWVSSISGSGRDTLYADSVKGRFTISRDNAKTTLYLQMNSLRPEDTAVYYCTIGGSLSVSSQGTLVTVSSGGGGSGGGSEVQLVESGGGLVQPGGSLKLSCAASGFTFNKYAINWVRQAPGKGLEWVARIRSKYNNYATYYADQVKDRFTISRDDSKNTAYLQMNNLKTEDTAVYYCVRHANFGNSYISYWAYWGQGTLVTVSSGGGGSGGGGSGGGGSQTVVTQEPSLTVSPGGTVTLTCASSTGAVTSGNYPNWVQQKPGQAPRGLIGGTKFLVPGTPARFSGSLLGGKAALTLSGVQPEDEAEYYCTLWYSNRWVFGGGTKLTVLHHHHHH
# Experimental: as §1
# [4] = target: T4, anti-DLL3 trispecific protein with DLL3 binding domain 42C10
# T4 construct: trispecific, one chain
# Experimental: as §1
# [5] = target: T5, anti-DLL3 trispecific protein with DLL3 binding domain 41G01
# T5 construct: trispecific, one chain
# Experimental: as §1
# [6] = target: T6, anti-DLL3 trispecific protein with DLL3 binding domain 53A04
# T6 construct: trispecific, one chain
# T6 sequence (chain, as listed by the source): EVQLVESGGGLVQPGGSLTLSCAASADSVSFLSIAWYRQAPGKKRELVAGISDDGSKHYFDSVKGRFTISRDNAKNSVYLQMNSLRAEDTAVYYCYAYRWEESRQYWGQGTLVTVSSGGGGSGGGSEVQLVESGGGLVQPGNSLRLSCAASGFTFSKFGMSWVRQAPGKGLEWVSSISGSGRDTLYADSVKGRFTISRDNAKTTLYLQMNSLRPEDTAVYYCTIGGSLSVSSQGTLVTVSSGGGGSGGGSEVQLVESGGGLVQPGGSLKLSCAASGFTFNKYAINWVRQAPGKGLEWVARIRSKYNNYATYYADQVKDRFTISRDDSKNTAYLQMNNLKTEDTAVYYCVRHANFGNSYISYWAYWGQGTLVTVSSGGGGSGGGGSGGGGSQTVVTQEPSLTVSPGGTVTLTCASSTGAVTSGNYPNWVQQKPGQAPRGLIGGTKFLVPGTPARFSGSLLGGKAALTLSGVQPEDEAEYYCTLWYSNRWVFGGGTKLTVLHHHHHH
# Experimental: as §1
# [7] = target: T7, anti-DLL3 trispecific protein with DLL3 binding domain 51F04
# T7 construct: trispecific, one chain
# Experimental: as §1
# [8] = target: T8, anti-DLL3 trispecific protein with DLL3 binding domain 53B05
# T8 construct: trispecific, one chain
# Experimental: as §1
# [9] = target: T9, anti-DLL3 trispecific protein with DLL3 binding domain 42D08
# T9 construct: trispecific, one chain
# T9 sequence (chain, as listed by the source): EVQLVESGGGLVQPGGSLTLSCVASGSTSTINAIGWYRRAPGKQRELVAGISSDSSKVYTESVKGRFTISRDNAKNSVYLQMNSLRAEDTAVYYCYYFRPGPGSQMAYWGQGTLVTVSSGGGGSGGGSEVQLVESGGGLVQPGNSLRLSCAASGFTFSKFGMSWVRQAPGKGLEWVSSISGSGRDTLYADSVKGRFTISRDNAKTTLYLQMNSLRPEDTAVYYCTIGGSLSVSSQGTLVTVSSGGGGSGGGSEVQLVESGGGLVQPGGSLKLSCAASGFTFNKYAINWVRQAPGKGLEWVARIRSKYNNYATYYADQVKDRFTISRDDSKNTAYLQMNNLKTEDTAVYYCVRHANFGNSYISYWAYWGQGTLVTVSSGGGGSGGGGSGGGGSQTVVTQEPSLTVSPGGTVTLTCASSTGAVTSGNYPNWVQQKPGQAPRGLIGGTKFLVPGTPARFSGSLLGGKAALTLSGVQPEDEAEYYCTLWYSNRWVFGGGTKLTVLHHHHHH
# Experimental: as §1
# [10] = target: T10, anti-DLL3 trispecific protein with DLL3 binding domain 42D05
# T10 construct: trispecific, one chain
# Experimental: as §1
# [11] = target: T11, anti-DLL3 trispecific protein with DLL3 binding domain 51F03
# T11 construct: trispecific, one chain; also called 51F3
# Experimental: as §1
# [12] = target: T12, anti-DLL3 trispecific protein with DLL3 binding domain 42A07
# T12 construct: trispecific, one chain
# Experimental: as §1
# [13] = target: T13, anti-DLL3 trispecific protein with DLL3 binding domain 41D01
# T13 construct: trispecific, one chain
# Experimental: as §1
# [14] = target: T14, anti-DLL3 trispecific protein with DLL3 binding domain 51B11
# T14 construct: trispecific, one chain
# Experimental: as §1
# [15] = target: T15, anti-DLL3 trispecific protein with DLL3 binding domain 42F10
# T15 construct: trispecific, one chain
# Experimental: as §1
# [16] = target: T16, anti-DLL3 trispecific protein with DLL3 binding domain 42H05
# T16 construct: trispecific, one chain
# Experimental: as §1
# [17] = target: T17, anti-DLL3 trispecific protein with DLL3 binding domain 54B05
# T17 construct: trispecific, one chain
# T17 sequence (chain, as listed by the source): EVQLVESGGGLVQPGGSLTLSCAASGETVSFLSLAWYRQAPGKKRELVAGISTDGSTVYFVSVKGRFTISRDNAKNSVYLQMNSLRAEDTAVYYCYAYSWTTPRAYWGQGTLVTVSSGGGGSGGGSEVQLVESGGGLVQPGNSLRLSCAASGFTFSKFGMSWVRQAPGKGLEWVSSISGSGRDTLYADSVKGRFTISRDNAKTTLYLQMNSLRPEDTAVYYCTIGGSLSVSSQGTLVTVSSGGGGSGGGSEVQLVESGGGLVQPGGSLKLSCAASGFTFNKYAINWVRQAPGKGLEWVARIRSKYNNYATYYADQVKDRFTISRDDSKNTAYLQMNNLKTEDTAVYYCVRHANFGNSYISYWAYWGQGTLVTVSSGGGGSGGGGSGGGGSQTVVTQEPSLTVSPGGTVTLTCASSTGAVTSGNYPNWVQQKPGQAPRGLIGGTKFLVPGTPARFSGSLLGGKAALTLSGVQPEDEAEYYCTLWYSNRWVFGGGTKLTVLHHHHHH
# Experimental: as §1
# [18] = target: T18, anti-DLL3 trispecific protein with DLL3 binding domain 41D02
# T18 construct: trispecific, one chain
# T18 sequence (chain, as listed by the source): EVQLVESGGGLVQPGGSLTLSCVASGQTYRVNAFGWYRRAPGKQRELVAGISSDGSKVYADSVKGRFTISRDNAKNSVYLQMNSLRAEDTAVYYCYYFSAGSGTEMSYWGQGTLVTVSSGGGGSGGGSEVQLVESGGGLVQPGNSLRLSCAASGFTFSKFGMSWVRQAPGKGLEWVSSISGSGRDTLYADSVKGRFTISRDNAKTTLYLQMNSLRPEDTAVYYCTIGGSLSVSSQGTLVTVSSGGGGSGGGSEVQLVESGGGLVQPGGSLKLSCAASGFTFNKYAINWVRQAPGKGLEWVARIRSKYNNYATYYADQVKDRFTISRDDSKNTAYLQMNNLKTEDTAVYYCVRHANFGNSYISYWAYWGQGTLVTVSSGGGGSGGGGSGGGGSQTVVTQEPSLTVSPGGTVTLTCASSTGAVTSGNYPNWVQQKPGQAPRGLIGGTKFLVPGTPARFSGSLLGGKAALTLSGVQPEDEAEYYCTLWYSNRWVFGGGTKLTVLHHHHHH
# Experimental: as §1
# [19] = target: T19, anti-DLL3 trispecific protein with DLL3 binding domain 53C04
# T19 construct: trispecific, one chain
# T19 sequence (chain, as listed by the source): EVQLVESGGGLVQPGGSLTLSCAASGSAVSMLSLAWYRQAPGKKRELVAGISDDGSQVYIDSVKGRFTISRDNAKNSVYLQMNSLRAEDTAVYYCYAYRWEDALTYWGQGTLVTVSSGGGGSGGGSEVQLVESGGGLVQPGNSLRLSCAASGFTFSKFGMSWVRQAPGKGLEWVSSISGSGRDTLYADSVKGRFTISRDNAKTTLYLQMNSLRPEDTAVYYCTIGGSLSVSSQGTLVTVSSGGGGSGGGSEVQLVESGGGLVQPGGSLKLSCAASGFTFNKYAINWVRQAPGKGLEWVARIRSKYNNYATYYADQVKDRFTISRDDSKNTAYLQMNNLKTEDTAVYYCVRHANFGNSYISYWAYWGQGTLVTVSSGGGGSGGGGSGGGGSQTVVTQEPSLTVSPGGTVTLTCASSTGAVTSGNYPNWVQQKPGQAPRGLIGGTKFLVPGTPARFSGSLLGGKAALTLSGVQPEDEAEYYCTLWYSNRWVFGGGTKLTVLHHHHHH
# Experimental: as §1
# [20] = target: T20, anti-DLL3 trispecific protein with DLL3 binding domain 42F08
# T20 construct: trispecific, one chain
# Experimental: as §1
# [21] = target: T21, anti-DLL3 trispecific protein with DLL3 binding domain 51A02
# T21 construct: trispecific, one chain
# T21 sequence (chain, as listed by the source): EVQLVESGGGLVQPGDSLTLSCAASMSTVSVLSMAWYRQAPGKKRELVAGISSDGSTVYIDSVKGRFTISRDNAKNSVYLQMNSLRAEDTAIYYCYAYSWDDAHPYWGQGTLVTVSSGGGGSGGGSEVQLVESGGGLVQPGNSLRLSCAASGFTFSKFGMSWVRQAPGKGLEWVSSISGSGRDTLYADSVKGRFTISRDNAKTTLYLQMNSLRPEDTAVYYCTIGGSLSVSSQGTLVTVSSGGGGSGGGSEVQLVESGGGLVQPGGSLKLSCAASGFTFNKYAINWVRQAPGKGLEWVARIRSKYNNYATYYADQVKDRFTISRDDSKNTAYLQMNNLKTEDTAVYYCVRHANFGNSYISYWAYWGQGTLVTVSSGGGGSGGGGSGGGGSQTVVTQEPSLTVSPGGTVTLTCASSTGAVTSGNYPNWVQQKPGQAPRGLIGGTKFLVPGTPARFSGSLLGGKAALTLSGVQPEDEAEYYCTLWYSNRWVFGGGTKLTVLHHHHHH
# Experimental: as §1
# [22] = target: T22, anti-DLL3 trispecific protein with DLL3 binding domain 42C11
# T22 construct: trispecific, one chain
# Experimental: as §1
# [23] = target: T23, anti-DLL3 trispecific protein with DLL3 binding domain 42G05
# T23 construct: trispecific, one chain
# Experimental: as §1
# [24] = target: T24, anti-DLL3 trispecific protein with DLL3 binding domain 41E01
# T24 construct: trispecific, one chain
# Experimental: as §1
# [25] = target: T25, anti-DLL3 trispecific protein with DLL3 binding domain 41B11
# T25 construct: trispecific, one chain
# Experimental: as §1
# [26] = target: T26, anti-DLL3 trispecific protein with DLL3 binding domain 42E06
# T26 construct: trispecific, one chain
# Experimental: as §1
# [27] = target: T27, anti-DLL3 trispecific protein with DLL3 binding domain 42H08
# T27 construct: trispecific, one chain
# Experimental: as §1
# [28] = target: T28, anti-DLL3 trispecific protein with DLL3 binding domain 53A09
# T28 construct: trispecific, one chain
# Experimental: as §1
# T1 sequence (chain, as listed by the source): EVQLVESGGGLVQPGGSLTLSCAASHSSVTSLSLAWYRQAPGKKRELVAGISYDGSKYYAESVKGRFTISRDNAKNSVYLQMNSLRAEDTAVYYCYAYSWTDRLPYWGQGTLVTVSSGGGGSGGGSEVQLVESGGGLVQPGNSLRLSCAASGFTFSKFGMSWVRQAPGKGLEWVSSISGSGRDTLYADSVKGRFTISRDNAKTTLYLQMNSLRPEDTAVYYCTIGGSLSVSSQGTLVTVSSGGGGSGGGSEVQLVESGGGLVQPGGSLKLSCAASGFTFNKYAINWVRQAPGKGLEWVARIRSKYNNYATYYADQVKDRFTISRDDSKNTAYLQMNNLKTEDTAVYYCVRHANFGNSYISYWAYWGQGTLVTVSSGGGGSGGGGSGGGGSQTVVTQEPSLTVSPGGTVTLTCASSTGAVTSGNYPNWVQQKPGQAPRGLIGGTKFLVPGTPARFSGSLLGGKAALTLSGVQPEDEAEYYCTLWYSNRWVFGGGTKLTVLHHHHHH
binder,measurement,setting,value
"biotinylated human DLL3 protein expressed as a human IgG1 fusion protein (Fc fusion, not shown: a dimerising Fc or GST, biotinylated) AGVFELQIHSFGPGPGPGAPRSPCSARLPCRLFFRVCLKPGLSEEAAESPCALGAALSARGPVYTEQPGAPAPDLPLPDGLLQVPFRDAWPGTFSFIIETWREELGDQIGGPAWSLLARVAGRRRLAAGGPWARDIQRAGAWELRFSYRARCEPPAVGTACTRLCRPRSAPSRCGPGLRPCAPLEDECEAPLVCRAGCSPEHGFCEQPGECRCLEGWTGPLCTVPVSTSSCLSPRGPSSATTGCLVPGPGPCDGNPCANGGSCSETPRSFECTCPRGFYGLRCEVSGVTCADGPCFNGGLCVGGADPDSAYICHCPPGFQGSNCEKRVDRCSLQPCRNGGLCLDLGHALRCRCRAGFAGPRCEHDLDDCAGRACANGGTCVEGGGAHRCSCALGFGGRDCRERADPCAARPCAHGGRCYAHFSGLVCACAPGYMGARCEFPVHPDGASALPAAPPGLRPGDPQRYL",Kd,[1],1.6 nM
same,Kd,[2],3.9 nM
same,Kd,[3],3.6 nM
same,Kd,[4],3.2 nM
same,Kd,[5],4 nM
same,Kd,[6],0.42 nM
same,Kd,[7],6.7 nM
same,Kd,[8],0.6 nM
same,Kd,[9],1.3 nM
same,Kd,[10],2.7 nM
same,Kd,[11],1.4 nM
same,Kd,[12],3.2 nM
same,Kd,[13],1.4 nM
same,Kd,[14],2.4 nM
same,Kd,[15],17 nM
same,Kd,[16],2.7 nM
same,Kd,[17],0.76 nM
same,Kd,[18],2.7 nM
same,Kd,[19],0.5 nM
same,Kd,[20],3.2 nM
same,Kd,[21],1.2 nM
same,Kd,[22],2.3 nM
same,Kd,[23],3.4 nM
same,Kd,[24],5.3 nM
same,Kd,[25],9.9 nM
same,Kd,[26],3.8 nM
same,Kd,[27],2.1 nM
same,Kd,[28],0.97 nM

# Reference: patent publication US20240141072A1 (published 2024)
